In patent US20170253650A1 (FRAUNHOFER GESELLSCHAFT ZUR FOERDERUNG DER ANGEWANDTEN …, published 2017):

What was measured:
[1] = molecular target: MSP4 on P. falciparum K1 parasites (multi-drug-resistant strain) (Plasmodium falciparum K1); experiment: cell-based or functional assay
[2] = molecular target: MSP4 on P. falciparum 3D7A parasites (mature schizonts / merozoite surface) (Plasmodium falciparum 3D7A); experiment: cell-based or functional assay

B1: Gb-2.44 (enterokinase-activated EGb-2.44scFv fusion protein: granzyme B R201K fused to MSP4-specific scFv 2.44) (other)
chain: SRHIDDDDKIIGGHEAKPHSRPYMAFLMIWDQKSLKRCGGFLIRDDFVLTAAHCWGSSINVTLGAHNIKEQEPTQQFIPVKRAIPHPAYNPKNFSNDIMLLQLERKAKRTRAVQPLRLPSNKAQVKPGQTCSVAGWGQTAPLGKHSHTLQEVKMTVQEDRKCESDLRHYYDSTIELCVGDPEIKKTSFKGDSGGPLVCNKVAQGIVSYGKNNGMPPRACTKVSSFVHWIKKTMKRYAEHEGDAAQPAMADVQLQESGPGLVKPSQSLSLTCTVTGYSITSDFAWNWIRQFPGNRLEWMGYMGYTGSTSYNPSLRGRISITRDTSKNQFFLQLNSVTTEDTATYYCARGDYYGSRGYFDVWGAGTTVTVSSGGGGSGGGGSSGGGSGGGGSEIVLTQSPALMAASPGEKVTITCSVSSSIRSSNLHWYQQKSDTSPKPWIYGTSNLASGVPVRFSGSGSGTSYSLTISTMEAEDAATYYCQQWSSYPFTFGSGTKLEIKAAANSSLGSGWSHPQFEKTGHHHHHHHHGGQ
- IC50-value, 48-h drug susceptibility assay on multi-drug resistant strain P. falciparum K1 (PfHRP2 ELISA) [1]: 247 nM
- half maximal inhibitory concentration (IC50-value), 48-h drug susceptibility assay on P. falciparum 3D7A (PfHRP2 ELISA) [2]: 176 nM
